Measured values taken from the DeepSol protein solubility set.

Assay: soluble on expression in E. coli; label from the status in PepcDB or PDB records

Sequence | soluble on expression in E. coli
MAKVVIPNGAEGEEAVYREQVIREYSGNPFIEALPPIYAPEEVVEKLAVYPPYSEEERNLDAHYRIHLTQKLFHCFQPLPQHLDLESRISRVIRQGYLPRNPVSKEYVISLKDGYRAVQNCDINANQQFRSTACGFTIIGVSGMGKSVSINRVLSMYPQVIVHSRYKGQGFSFYQLVWLKLDTPFDGSVKGLCIDFFNKVDQLMGTDFYKKVANSRKSVDYMLTLMCQVVRNTGLGLLIIDEVQHLCGARGLGDERMLNFFVTLVNTAGVPIILIATPKAMSILQSEFRQARRGSGQGDMVWERLQYDENFEILLDSLWQYQWTRKESILTKSMRELLYEESQGIIDIICKIIVMAQTIAISTGKEQVDEKLIQQVAREHLQLVRPMILALKSGNIREIAKYSDICTAEIDYGKLVNQEKLPVEMRMRIRAIKEQKEKREKENKTSKMEQALYKLAELGIDVAKARKAVEAVFEAEGHNIDEGQLVIKAIQVLSGNTTEKKSKKVKTTPKSENDLRYIVEEGRNQGKSAYDALKDKGYIKGEKNDTLFKAV | not soluble
MAKVYYEKDVTVNVLKEKKVAIIGYGSQGHAHAQNLRDNGFDVVVGLRKGKSWDKAKEDGFSVYTVAEAAKQADVVMILLPDELQPEVYEEEIAPNLQAGNSLVFAHGFNVHFDQVKPPVNVDVFLVAPKGPGHLVRRTFSEGGAVPALFAVYQDATGVATEKALSYADGIGATRAGVLETTFKEETETDLFGEQAVLCGGVTALVKAGFETLVDAGYQPELAYFECLHELKLIVDLMYEGGLENMRYSVSDTAQWGDFVSGPRVVTEDTKKAMGTVLAEIQDGTFARGWIAEHKAGKPNFYATNEKENEHEIEVVGRKLRGMMPFVQPRVKAGVK | not soluble
MAKYFDIDDILIEEEFVPVLFHKTANGVTIDPSAETNCVSLLIPSAKAEQGSKVELPFWLAHELHLRQAVTINLPPCFDQKTRLEVQADAAYVDLRSRCPYFYEFGCKIEPLVTDRTLGILLSTAFKIRYKEALTKVYTAAHITASKYLSFLTKEETNLYEAAHLSMTAFKKWRTGGPRFQRASILGRKRKDSN | soluble
MALALTLREYEFSVLLLEARELPEKVDDPRPLALSYGSRLILQRLDIWKNLTQPAPITTIHISNRGHFGHAVLTPDDAGVPALGYVVNYHDLYHSMGRAIRGSNAVYQTNALVTAIRTDLSLAQVAYQQGSTTRQVRARLLVLADGGKLAEQIDGVRYHTYDYQQTAIVANVKVESPRPGTAFERFTLNGPLALLPSGEGYALVWTMPAAAAEKILKLDDRSFLLHLHEQFGDRMGEFTHVGPRSSFPLILKHASTITGHRAVLIGNAAQALHPVAGQGFNLGLRDAWELASEISRIPSGTPGEPGSTRMLAAYSRRRQSDKRISRLFTDSLVKLFTADLPLVQTCSGMGLAALDNLPPARRLIAHQMIFGTKGWFIGLEHHHHHH | soluble
MALDNAKTSQKLQSLAELDGKAPSHRNLNVQTWSTAEGAKVLFVEARELPMFDLRLIFAAGSSQDGNAPGVALLTNAMLNEGVAGKDVGAIAQGFEGLGADFGNGAYKDMAVASLRSLSAVDKREPALKLFAEVVGKPTFPADSLARIKNQMLAGFEYQKQNPGKLASLELMKRLYGTHPYAHASDGDAKSIPPITLAQLKAFHAKAYAAGNVVIALVGDLSRSDAEAIAAQVSAALPKGPALAKIEQPAEPKASIGHIEFPSSQTSLMLAQLGIDRDDPDYAAVSLGNQILGGGGFGTRLMSEVREKRGLTYGVYSGFTPMQARGPFMINLQTRAEMSEGTLKLVQDVFAEYLKNGPTQKELDDAKRELAGSFPLSTASNADIVGQLGAMGFYNLPLSYLEDFMRQSQELTVEQVKAAMNKHLNVDKMVIVSAGPTVAQKPLEHHHHHH | not soluble
MALEKEEEASQNGAFCVLDGLYCEEETGFVEDDLDDDGDLDFLEKSDESVVKFQFLPLLDMFLWDDDEILSLISKENETNPCFGEQILDGFLVSCRKEALDWVLRVKSHYGFTSLTAILAVNYFDRFMTSIKLQTDKPWMSQLVAVASLSLAAKVEEIQVPLLLDLQVEEARYLFEAKTIQRMELLILSTLQWRMHPVTPISFFDHIIRRFGSKWHQQLDFCRKCERLLISVIADTRFMRYFPSVLATAIMILVFEELKPCDEVEYQSQITTLLKVNQEKVNECYELLLEHNPSKKRMMNLVDQDSPSGVLDFDDSSNSSWNVSTTASVSSSSSSPEPLLKRRRVQEQQMRLPSINRMFLDVLSSPR | soluble
MALHVDYTAERAFARIIGGLRSARLDAGLSQNALAAGMPVRGRAISEWETRAVEPTLGHLIQWARELGRRLVIVGRDGELRVGPVRQRPGETFEIFERRRLAVPLRNRRLALGMAQGELGALVGVSRDSIQRWELVRVPPRPIAHVVWAQKLGCSLDILVVPDGARRVRRTGFAPAGLAGSTLERPGLRVQRLGL | not soluble
MALSDVKVRSAKPEAKAYKLTDGEGMVLLVHPNGSKYWRLRYRFGGKEKMLALGKYPEVSLADARARRDEARKLLANGVDPSENKKAVKVEQEQEAITFEVVARDWHASNQKWSASHSARVLKSLEDNLFTAIGKRNIAELKTRDLLVPIKAVESSGRLEVAARLQQRTTAIMRFAVQSGLIDYNPAQEIAGAVATAKRQHRAALELNRIPELLHRIDHYSGRPLTRLAVELTLLVFIRSSELRFARWSEIDFETAMWTIPGEREQLEGVKHSQRGSKMRTPHLVPLSRQALSILEKIKSMSGNRELIFVGDHDPRKPMSENTVNKALRVMGYDTKVEVCGHGFRTMACSSLIESGLWSRDAVERQMSHQERSSVRAAYIHKAEHLGERRLMFEVVNKNWPPS | not soluble
MALVDQESCLRGFYSVFLRHCDVEPAIATFDGVRSPPDVVRLYPKPRYDYTLASAFLGTAVSGYITSRRDNAPNKNTGHRYVYTTSILIAVVTSVDTQHRSPSRCFMAMGESYFLQDEKCVFWLEHHHHHH | not soluble
MALVNSILKANEYSFKVPEFDGKNVSSILGFDSNQLPANAPIEDRRSAATCLQTRGMLLGVFDGHAGCACSQAVSERLFYYIAVSLLPHETLLEIENAVESGRALLPILQWHKHPNDYFSKEASKLYFNSLRTYWQELIDLNTGESTDIDVKEALINAFKRLDNDISLEAQVGDPNSFLNYLVLRVAFSGATACVAHVDGVDLHVANTGDSRAMLGVQEEDGSWSAVTLSNDHNAQNERELERLKLEHPKSEAKSVVKQDRLLGLLMPFRAFGDVKFKWSIDLQKRVIESGPDQLNDNEYTKFIPPNYHTPPYLTAEPEVTYHRLRPQDKFLVLATDGLWETMHRQDVVRIVGEYLTGMHHQQPIAVGGYKVTLGQMHGLLTERRTKMSSVFEDQNAATHLIRHAVGNNEFGTVDHERLSKMLSLPEELARMYRDDITIIVVQFNSEGHHHHHH | soluble
MAMEKPVLWYIADPMCSWCWGFAPVIENIRQEYSAFLTVKIMPGGLRPGTNTPLLPEKRAQILHHWHSVHITTGQPFTFENALPEGFIYDTEPACRGVVSVSLIEPEKVFPFFAAIQRAFYVGQEDVAQLAILKKLAVDLGIPESRFTPVFQSDEAKQRTLAGFQRVAQWGISGFPALVVESGTDRYLITTGYRPIEALRQLLDTWLQQHGV | soluble
MANFIDRRLNAKGKSTVNRQRFINRYKQQIKKAVSDAVTRRSVTDVDKGEKISIPTRDISEPMFHQGKGGVRDRVHPGNDQFTRGDKIDRPQGGSGGGAGKGDASDSGEGNDDFVFEISKDEYLELLFEDLELPNLQKNRLNKLVEYQIYRAGFTNDGVPANINIVRSLRSSLARRIAMSASKKKLLKESEQELAELENIPGTKAELILDLKAQIEELKRKIAKVPFIDTFDLRFNNFSRREVPSSQAVMFCLMDVSGSMDQATKDMAKRFYILLYLFLTRTYKNLEVVYIRHHTQAKEVDEHEFFYSQETGGTIVSSALKLMHEIQQARYPADEWNIYAAQASDGDNWADDSPTCKQLLEQKILPLVRYFSYIEITNRAHQTLWREYESLQQHYDNIAVQHIRQAEDIYPVFRELFKKQAVLEHHHHHH | not soluble
MANFVQLSETPAACSSNPCGPEAAGTCKETNSGYICRCNQGYRISLDGTGNVTCIVRQESG | soluble
MANIEIYTKATCPFCHRAKALLNSKGVSFQEIAIDGDAVKREEMIKRSGRTTVPQIFIDAQHIGGCDDLYALDARGGLDPLLR | not soluble
MANLKRYNDGLFKLDLWIRRLLTIGESNELYTALCDGVCDIVGAGTAVFTTIDMQAGTLTYMAASGGWNAMVKGLAVPMKSGNLCASVAACGTPLRIDQISSRTDSCELLQVMDMDAAVLVPVLEEGRVTACLSAFRVGNPFDQIDEQLLQQYAHTASMVLRTVRLMVDLR | not soluble
